The MegaScale stability set (Tsuboyama et al. 2023)

B1: EEHEE_rd4_0647 (parent)
chain: MQVTWGNVTVTFSNPEEAKKYAEKVARKLGGQVELHNGQFRIK
B2: EHEE_rd3_0053 (parent)
chain: TYTFKVDNKDQAKKAAKWAKKLGLSFQIEKHGDTFKITVQ

Variants of: B1
Experiment: folding stability dG (cDNA display proteolysis); higher = more stable
Details: PBS, room temperature

Folding stability dG [kcal/mol] of substitutions, site by site:
N7: R 2.64; L 2.27; D 2.58; A 2.39; Y 2.54; I 2.31; T 2.67; V 2.33; P 2.29; H 2.64; C 3.66; G 2.58; W 2.43; M 2.37; Q 2.49; K 2.72; S 2.68; F 2.43; E 2.39
Q2: D 2.46; M 2.71; V 2.86; E 2.52; R 2.72; Y 2.23; I 2.82; A 2.64; H 2.3; L 2.55; S 3.04; C 3.07; W 1.97; N 2.49; F 2.16; P 1.45; K 2.94; T 3.09; G 2.12
W5: A 1.17; G 0.431; S 0.968; C 3.09; N 1.12; E 0.581; M 1.83; R 0.966; Y 2.53; T 1.19; P 0.153; H 2.15; L 2.12; F 2.53; D 1.03; I 2.61; K 0.547; V 2.64; Q 0.719
V8: F 2.81; Y 2.84; E 1.92; I 2.96; M 2.68; T 2.64; S 2.01; Q 2.35; R 2.5; N 2.51; P 0.417; W 2.79; A 1.89; L 2.45; D 1.33; H 2.8; G 1.49; K 2.57
T4: V 3.15; W 2.11; S 2.81; P 0.446; G 1.46; N 2.18; F 2.24; A 2.49; D 0.672; K 2.58; M 2.58; H 2.54; E 1.66; Y 2.21; R 2.76; Q 2.49; I 2.97; L 2.6
G6: K 2.1; D 2.86; T 1.3; R 2.21; E 1.96; P 0.79; Q 1.99; L 2.49; Y 2.51; N 2.38; M 2.32; F 2.55; C 3.2; A 2.25; W 2.76; V 1.39; H 2.48; S 2.08; I 1.59
T9: A 1.85; L 2.22; M 2.15; G 0.945; F 1.95; N 1.62; E 1.46; K 2.02; D 0.892; H 1.77; C 3.2; I 2.71
M1: T 3.28; K 2.27; W 3.72; V 3.11; E 1.3; N 2.45; I 3.13; Q 2.03; D 1.42; C 3.6; P 2.09; F 3.34; S 2.61; H 2.9; G 1.95; L 2.78; Y 3.45; A 2.6; R 2.57
V3: A 0.626; L 1.35; T 0.641; M 1.05; H 0.343; K 0.404; W 0.9; S 0.229; Q 0.078; G 0.57; P 0.068; F 1.97; E 0.263; N 0.227; Y 0.842; C 1.8; D 0.045; R 0.122; I 1.61

Variants of: B2
Experiment: as above
Details: PBS, room temperature

Folding stability dG [kcal/mol] of substitutions, site by site:
K9: E 2.65; F 2.74
Q27: K 2.64
D33: K 2.35
A12: H 0.275
